Paper doi:10.1101/568618 (bioRxiv, 2019)

B1: Arabidopsis COP1^349-675 WD40 domain (domain or fragment)
chain: TFTRYSRLRVIAEIRHGDIFHSANIVSSIEFDRDDELFATAGVSRCIKVFDFSSVVNEPADMQCPIVEMSTRSKLSCLSWNKHEKNHIASSDYEGIVTVWDVTTRQSLMEYEEHEKRAWSVDFSRTEPSMLVSGSDDCKVKVWCTRQEASVINIDMKANICCVKYNPGSSNYIAVGSADHHIHYYDLRNISQPLHVFSGHKKAVSYVKFLSNNELASASTDSTLRLWDVKDNLPVRTFRGHTNEKNFVGLTVNSEYLACGSETNEVYVYHKEITRPVTSHRFGSPDMDDAEEEAGSYFISAVCWKSDSPTMLTANSQGTIKVLVLAA
B2: COP1^(349-675, Lys422Ala) WD40 domain (domain or fragment)
chain: TFTRYSRLRVIAEIRHGDIFHSANIVSSIEFDRDDELFATAGVSRCIKVFDFSSVVNEPADMQCPIVEMSTRSALSCLSWNKHEKNHIASSDYEGIVTVWDVTTRQSLMEYEEHEKRAWSVDFSRTEPSMLVSGSDDCKVKVWCTRQEASVINIDMKANICCVKYNPGSSNYIAVGSADHHIHYYDLRNISQPLHVFSGHKKAVSYVKFLSNNELASASTDSTLRLWDVKDNLPVRTFRGHTNEKNFVGLTVNSEYLACGSETNEVYVYHKEITRPVTSHRFGSPDMDDAEEEAGSYFISAVCWKSDSPTMLTANSQGTIKVLVLAA
B5: recombinant light-activated full-length CRY2 (natural protein)
chain: MKMDKKTIVWFRRDLRIEDNPALAAAAHEGSVFPVFIWCPEEEGQFYPGRASRWWMKQSLAHLSQSLKALGSDLTLIKTHNTISAILDCIRVTGATKVVFNHLYDPVSLVRDHTVKEKLVERGISVQSYNGDLLYEPWEIYCEKGKPFTSFNSYWKKCLDMSIESVMLPPPWRLMPITAAAEAIWACSIEELGLENEAEKPSNALLTRAWSPGWSNADKLLNEFIEKQLIDYAKNSKKVVGNSTSLLSPYLHFGEISVRHVFQCARMKQIIWARDKNSEGEESADLFLRGIGLREYSRYICFNFPFTHEQSLLSHLRFFPWDADVDKFKAWRQGRTGYPLVDAGMRELWATGWMHNRIRVIVSSFAVKFLLLPWKWGMKYFWDTLLDADLECDILGWQYISGSIPDGHELDRLDNPALQGAKYDPEGEYIRQWLPELARLPTEWIHHPWDAPLTVLKASGVELGTNYAKPIVDIDTARELLAKAISRTREAQIMIGAAPDEIVADSFEALGANTIKEPGLCPSVSSNDQQVPSAVRYNGSKRVKPEEEEERDMKKSRGFDERELFSTAESSSSSSVFFVSQSCSLASEGKNLEGIQDSSDQITTSLGKNGCK

Key:
[1] = molecular target: UVR8^HY5C44 chimera (recombinant) (Arabidopsis | not stated); assay: SEC
[2] = molecular target: B5; assay: grating-coupled interferometry
[3] = molecular target: T1, full-length UVR8 (Arabidopsis, UniProt Q9FN03 1-440); assay: grating-coupled interferometry
T1 sequence: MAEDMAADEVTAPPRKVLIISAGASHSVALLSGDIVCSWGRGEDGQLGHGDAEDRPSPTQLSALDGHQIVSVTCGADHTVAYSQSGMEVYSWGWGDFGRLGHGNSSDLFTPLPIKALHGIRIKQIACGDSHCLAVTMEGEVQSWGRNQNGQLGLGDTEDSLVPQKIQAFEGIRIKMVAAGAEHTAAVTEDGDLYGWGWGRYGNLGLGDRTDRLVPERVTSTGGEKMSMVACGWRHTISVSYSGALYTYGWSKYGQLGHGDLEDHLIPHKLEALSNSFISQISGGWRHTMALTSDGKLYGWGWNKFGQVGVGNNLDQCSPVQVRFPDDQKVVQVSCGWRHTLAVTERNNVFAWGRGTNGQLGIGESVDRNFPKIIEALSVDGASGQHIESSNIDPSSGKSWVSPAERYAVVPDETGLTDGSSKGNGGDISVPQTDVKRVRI

[4] = molecular target: T2, UVR8^12-381 (UVR8 β-propeller core) (Arabidopsis, UniProt Q9FN03 12-381); assay: grating-coupled interferometry
T2 sequence: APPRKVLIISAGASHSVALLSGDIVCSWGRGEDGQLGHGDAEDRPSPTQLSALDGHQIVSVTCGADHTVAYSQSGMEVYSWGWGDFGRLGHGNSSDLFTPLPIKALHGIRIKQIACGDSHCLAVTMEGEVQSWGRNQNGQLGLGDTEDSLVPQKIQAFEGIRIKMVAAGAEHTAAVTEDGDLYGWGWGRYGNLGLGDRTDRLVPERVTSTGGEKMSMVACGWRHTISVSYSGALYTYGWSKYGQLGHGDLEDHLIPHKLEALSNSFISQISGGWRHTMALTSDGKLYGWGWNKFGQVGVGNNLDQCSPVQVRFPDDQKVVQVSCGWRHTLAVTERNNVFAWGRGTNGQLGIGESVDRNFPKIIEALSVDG

[5] = molecular target: B1; assay: crystal structure
[6] = molecular target: B1; assay: ITC
[7] = molecular target: B2; assay: ITC
[8] = molecular target: B1; assay: grating-coupled interferometry
[9] = molecular target: B2; assay: crystal structure

UVR8^HY5C44 chimera (recombinant)
stoichiometry N [1]: 2

B1
binding result [2]: binds
Kd [3]: ~1 µM
Kd [4]: ~0.5 µM

B2
binding result [3]: binds

YLQIVPEI [HFR1^57-64 VP-peptide]
binding result [5]: binds

NDQQVPSAV [CRY2^527-535 VP-peptide]
binding result [6]: binds
fold reduced binding against wild-type COP1 [7]: ~30 fold

RYAVVPDE [UVR8^406-413 VP-peptide]
binding result [6]: binds
fold increase in affinity over wild-type COP1 [7]: ~10 fold

B3: full-length HY5 protein (natural protein)
chain: MQEQATSSLAASSLPSSSERSSSSAPHLEIKEGIESDEEIRRVPEFGGEAVGKETSGRESGSATGQERTQATVGESQRKRGRTPAEKENKRLKRLLRNRVSAQQARERKKAYLSELENRVKDLENKNSELEERLSTLQNENQMLRHILKNTTGNKRGGGGGSNADASL
Kd [8]: ~1 µM

B4: CRY2^NC80 (CRY2^486-565) (domain or fragment)
chain: SRTREAQIMIGAAPDEIVADSFEALGANTIKEPGLCPSVSSNDQQVPSAVRYNGSKRVKPEEEEERDMKKSRGFDERELF
binding result [8]: binds

EHFIVPDL [STO^240-247 VP-peptide]
binding result [5]: binds

EDQMVPSIT [CRY1^544-552 VP-peptide]
binding result [7]: binds
binding result [5]: binds

GFGVVPSF [COL3^287-294 VP-peptide]
binding result [7]: binds
binding result [5]: binds

B5
fold increase in affinity over the isolated CRY2 VP-peptide [8]: ~200 fold

EIRRVPEFGG [HY5^39-48 VP-peptide]
Kd [6]: ~20 µM
fold stronger binding than UVR8^406-413 [6]: ~8 fold
binding result [9]: binds

GYGIVPSF [CO^366-373 VP-peptide]
binding result [6]: binds
fold stronger binding than to wild-type COP1 [7]: ~4 fold

ELLMVPDM [HYH^27-34 VP-peptide]
binding result [5]: binds
